Key:
[1] = molecular target: insulin B-chain (bovine pancreas insulin reduced with DTT) (bovine, UniProt P01317 25-54); test: cell-based or functional assay
[2] = molecular target: the molecule itself; test: SEC; size-exclusion HPLC, Phenomenex BioSep SEC S4000 column; mobile phase 50 mM sodium phosphate buffer, pH 7.2; 10 µL of a 10 mg/mL sample, 0.5 mL/min; calibrated with mass standards; self-association into oligomers

Chain of insulin B-chain (bovine pancreas insulin reduced with DTT) (P01317 25-54): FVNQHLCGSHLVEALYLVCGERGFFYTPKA

Binder	decrease in chaperone assay: percentage protection against DTT-induced precipitation of the insulin B-chain (light scattering at 340 nm, 37°C, 1.0:0.14 molar ratio of insulin:αB-crystallin, after 90 …) [1] [%]	binding result [2]
I159A/I161A αB-crystallin (natural protein, human, UniProt P02511 1-175, looked up, αB-crystallin, human, SwissProt P02511, with I159A and I161A (I-X-I motif); ESI-MS mass 20074.4 Da; The measured mass fits the whole untagged protein with both changes; also called I159A/I161A mutant; source: dialyzed against 50 mM phosphate buffer) MDIAIHHPWIRRPFFPFHSPSRLFDQFFGEHLLESDLFPTSTSLSPFYLRPPSFLRAPSWFDTGLSEMRLEKDRFSVNLDVKHFSPEELKVKVLGDVIEVHGKHEERQDEHGFISREFHRKYRIPADVDPLTITSSLSSDGVLTVNGPRKQVSGPERTAPATREEKPAVTAAPKK	68	binds
Wild-type human αB-crystallin (natural protein, UniProt P02511 1-175, looked up, αB-crystallin, human, SwissProt P02511; Polydisperse oligomer; also called αB-WT; wild-type αB-crystallin) MDIAIHHPWIRRPFFPFHSPSRLFDQFFGEHLLESDLFPTSTSLSPFYLRPPSFLRAPSWFDTGLSEMRLEKDRFSVNLDVKHFSPEELKVKVLGDVIEVHGKHEERQDEHGFISREFHRKYRIPADVDPLTITSSLSSDGVLTVNGPRKQVSGPERTIPITREEKPAVTAAPKK	–	binds
E164A/E165A αB-crystallin (natural protein, human, UniProt P02511 1-175, looked up, αB-crystallin, human, SwissProt P02511, with E164A and E165A; ESI-MS mass 20043.0 Da; The measured mass fits the whole untagged protein with both changes; also called E164A/E165A mutant) MDIAIHHPWIRRPFFPFHSPSRLFDQFFGEHLLESDLFPTSTSLSPFYLRPPSFLRAPSWFDTGLSEMRLEKDRFSVNLDVKHFSPEELKVKVLGDVIEVHGKHEERQDEHGFISREFHRKYRIPADVDPLTITSSLSSDGVLTVNGPRKQVSGPERTIPITRAAKPAVTAAPKK	–	binds
K175L αB-crystallin (natural protein, human, UniProt P02511 1-175, looked up, αB-crystallin, human, SwissProt P02511, with K175L; ESI-MS mass 20143.9 Da; The measured mass fits the whole untagged protein with the change; also called K175L mutant) MDIAIHHPWIRRPFFPFHSPSRLFDQFFGEHLLESDLFPTSTSLSPFYLRPPSFLRAPSWFDTGLSEMRLEKDRFSVNLDVKHFSPEELKVKVLGDVIEVHGKHEERQDEHGFISREFHRKYRIPADVDPLTITSSLSSDGVLTVNGPRKQVSGPERTIPITREEKPAVTAAPKL	–	binds
K174A/K175A αB-crystallin (natural protein, human, UniProt P02511 1-175, looked up, αB-crystallin, human, SwissProt P02511, with K174A and K175A; ESI-MS mass 20044.8 Da; The measured mass fits the whole untagged protein with both lysines changed to alanine, although the printed primer reads GCG AAG; also called K174A/K175A mutant) MDIAIHHPWIRRPFFPFHSPSRLFDQFFGEHLLESDLFPTSTSLSPFYLRPPSFLRAPSWFDTGLSEMRLEKDRFSVNLDVKHFSPEELKVKVLGDVIEVHGKHEERQDEHGFISREFHRKYRIPADVDPLTITSSLSSDGVLTVNGPRKQVSGPERTIPITREEKPAVTAAPAA	–	binds
